Measured values published in patent US20220340678A1.

Assays:
[1] = biological target: p40 without a fusion partner (human) (UniProt P29460); assay: cell-based or functional assay
[2] = biological target: p40-Fab fusion protein (human) (UniProt P29460); assay: cell-based or functional assay
[3] = biological target: p40-IgG (anti-uPAR M37 IgG) (human) (UniProt P29460); assay: cell-based or functional assay
[4] = biological target: p35-MSA fusion protein (human; mouse) (UniProt P29459); assay: BLI (Octet), biotinylated p35-MSA against p40-fab, 0 hr at 37 C
[5] = biological target: p35-MSA fusion protein (human; mouse) (UniProt P29459); assay: BLI (Octet), biotinylated p35-MSA against p40-fab, 4 hr at 37 C
[6] = biological target: p35-MSA fusion protein (human; mouse) (UniProt P29459); assay: BLI (Octet), biotinylated p35-MSA against p40-fab, 24 hr at 37 C
[7] = biological target: p35-MSA fusion protein (human; mouse) (UniProt P29459); assay: BLI (Octet), biotinylated p35-MSA against p40-fab, 47 hr at 37 C
[8] = biological target: GM-CSF receptor on U937 cells (human); assay: cell-based or functional assay
[9] = biological target: IL-12 receptor on HEK-BLUE IL-12 cells; assay: cell-based or functional assay

Sequence of p35-MSA fusion protein (human; mouse) (P29459 23-219): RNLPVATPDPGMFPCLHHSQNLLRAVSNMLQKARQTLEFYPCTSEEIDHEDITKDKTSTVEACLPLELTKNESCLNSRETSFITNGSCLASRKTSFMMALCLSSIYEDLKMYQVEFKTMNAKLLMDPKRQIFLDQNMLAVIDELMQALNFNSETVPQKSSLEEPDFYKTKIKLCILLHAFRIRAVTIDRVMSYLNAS
Sequence of p40-IgG (anti-uPAR M37 IgG) (human) (P29460 23-328): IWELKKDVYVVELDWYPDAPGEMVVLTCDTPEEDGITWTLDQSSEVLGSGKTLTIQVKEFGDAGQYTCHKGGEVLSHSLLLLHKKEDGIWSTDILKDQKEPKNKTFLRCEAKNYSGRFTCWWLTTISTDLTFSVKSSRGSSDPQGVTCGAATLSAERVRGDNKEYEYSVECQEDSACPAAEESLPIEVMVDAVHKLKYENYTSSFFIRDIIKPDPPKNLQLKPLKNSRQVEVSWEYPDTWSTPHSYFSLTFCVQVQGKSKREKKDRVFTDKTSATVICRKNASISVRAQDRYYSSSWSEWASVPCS
Sequence of p40-Fab fusion protein (human) (P29460 23-328): as above
Sequence of p40-Fab fusion protein (P29460 23-328): as above

p35-MSA fusion protein (from UniProt P29459 23-219)
EC50, % pStat4 formation in CD4+ T cells [1]: 0.842 nM
EC50, % pStat4 formation in CD8+ T cells [1]: 1.06 nM
EC50, IFN gamma production by T cells [1]: 0.657 nM
EC50 fold change relative to scIL-12, IFN gamma production [1]: 128 fold
EC50 fold change relative to scIL-12, pStat4 in CD4+ T cells [1]: 16.4 fold
EC50 fold change relative to scIL-12, pStat4 in CD8+ T cells [1]: 14.2 fold
EC50, % pStat4 formation in CD4+ T cells [2]: 0.708 nM
EC50, % pStat4 formation in CD8+ T cells [2]: 0.912 nM
EC50, IFN gamma production by T cells [2]: 0.559 nM
EC50 fold change relative to scIL-12, IFN gamma production [2]: 109 fold
EC50 fold change relative to scIL-12, pStat4 in CD4+ T cells [2]: 13.8 fold
EC50 fold change relative to scIL-12, pStat4 in CD8+ T cells [2]: 12.2 fold
EC50, % pStat4 formation in CD4+ T cells [3]: 0.173 nM
EC50, % pStat4 formation in CD8+ T cells [3]: 0.571 nM
EC50, IFN gamma production by T cells [3]: 0.403 nM
EC50 fold change relative to scIL-12, IFN gamma production [3]: 78.2 fold
EC50 fold change relative to scIL-12, pStat4 in CD4+ T cells [3]: 3.37 fold
EC50 fold change relative to scIL-12, pStat4 in CD8+ T cells [3]: 7.66 fold

p40-Fab fusion protein (from UniProt P29460 23-328)
Kd [4]: 7.82 nM
koff [4]: 0.000462 s⁻¹
kon [4]: 59100 M⁻¹ s⁻¹
Kd [5]: 7.54 nM
koff [5]: 0.000385 s⁻¹
kon [5]: 51100 M⁻¹ s⁻¹
Kd [6]: 11.1 nM
koff [6]: 0.000422 s⁻¹
kon [6]: 38100 M⁻¹ s⁻¹
Kd [7]: 10.5 nM
koff [7]: 0.000376 s⁻¹
kon [7]: 35800 M⁻¹ s⁻¹

recombinant human GM-CSF (R&D Systems, cat # 215-GM-050/CF) (from UniProt P04141 18-144) (ligand)
pSTAT5 EC50, U937 cells, no competitor [8]: 18.6 pM

wild-type human IL-12 (R&D Systems, Cat. No. 219-IL-005/CF) (from UniProt P29459 23-219; P29460 23-328) (ligand)
potency, SEAP reporter in HEK-BLUE IL-12 cells [9]: 0.018 nM
